Assay: yeast display, Sf9 membrane polyspecificity reagent, FACS + sequencing; frameworks hold sequencing errors
Outline: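 Using colony PCR, genes from sorted yeast display clones were amplified, then sequenced on MiSeq at 2 × 250 and filtered by CDR length. The clones had been stained with 10% biotinylated, detergent-solubilized Sf9 membrane reagent for 1 hour at 4 °C and sorted by FACS into low and high (top ~1%) gates on anti-HA and streptavidin fluorescence. Polyreactivity labels come from the gate of origin.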

Row | Sequence | polyreactivity (PSR sort gate)
1 | QVQLVESGGGLVQAGGSLRLSCAASGSTFYKYAMGWYRQAPGKERELVASISRRAGSTYYADSVKGRFTISRDNAKNTVYLQMNSLKPEDTAVYYCAAVGRYDRVFDYDYWGQGTQVTVSS | high polyreactivity
2 | QVQLVESGGGLVQAGGSLRLSCAASGSTFYKYAMGWYRQAPGKERELVASISRSGGSTSYADSVKGRFTISRDNAKNTVYLQMNSLKPEDTAVYYCAADRYSSPYYSSPNEYDYWGQGTQVTVSS | high polyreactivity
3 | QVQLVESGGGLVQAGGSLRLSCAASGSTFYKYAMGWYRQAPGKERELVASISRSGGSTSYADSVKGRFTITRDNAKNTVYLQMNSLKPEDTAVYYCAATWRQHPGSMGYWGQGTQVTVSS | high polyreactivity
4 | QVQLVESGGGLVQAGGSLRLSCAASGSTFYLNAMGWYRPAPGKERELVAAISSGGRTYYADSVKGRFTISRDNAKNTVYLQMISLKPEDTGVYYCNAVRYLRGAYNYWGQGTQVTVSS | high polyreactivity
5 | QVQLVESGGGLVQAGGSLRLSCAASGSTFYLYAMGLYRQAPGKERELVAAISSGGRTNYADSVKGRFTISRDNAKNTVYLQMNSLKPEDTAVYYCAARIQWPTWSLYYYWGQGTQVTVSS | high polyreactivity
6 | QVQLVESGGGLVQAGGSLRLSCAASGSTFYLYAMGWYRQAPGKEREFVAAISWSGGRTYYAHSVKGRFTISRDYAKNTVYLQMNSLKPEDTAVYYCAARRRYTWQYTSYDMGYWGQGTQVTVSS | low polyreactivity
7 | QVQLVESGGGLVQAGGSLRLSCAASGSTFYLYTMGWYRQAPGKERELVAASSINGGITYYADSVKGRFTISRDNAKNTVYFQMYSLKPEDTAVYYCAKSSGQTDVGSFYYRLDYWGQGTQVTVSS | low polyreactivity
8 | QVQLVESGGGLVQAGGSLRLSCAASGSTFYNNAMGWYRQAPGKERELVAAISSGGGTYYADSVKGRFTISRDNAKNTVYLQMNSLKPEDTAVYYCAADFANTTHWGRIKRYDYWGQGTQVTVSS | low polyreactivity
9 | QVQLVESGGGLVQAGGSLRLSCAASGSTFYNNAMGWYRQAPGKERELVAAITSSVGSTHYADSVKGRFTISRDNAKNTVYLQMNSLKPEDSAVYYCNARGRLYGHLYDYWGQGTQVTVSS | low polyreactivity
10 | QVQLVESGGGLVQAGGSLRLSCAASGSTFYNYVMGWYRQAPGKERELVAAISSSGGNTYYADSVKGRFTISRDNAKNTVYLQMNSLKPEDTAVYYCAARERHPSGGKYDYWGQGTQVTVSS | high polyreactivity
11 | QVQLVESGGGLVQAGGSLRLSCAASGSTFYPNAMGWYRQAPGKERELVAAIDRGGSTSYADSVKGRFTISRDNAKNTVYLQMNSLKPEDTAVYYCAVARGGRRKYEYWGQGTQVTVSS | low polyreactivity
12 | QVQLVESGGGLVQAGGSLRLSCAASGSTFYPNAMGWYRQAPGKERELVAAIRTRGGSTYYADSVKGRFTISRDNAKNTVYLQMNSLKPEDTAVYYCAAEKRYRKAFDYWGQGTQVTVSS | low polyreactivity
13 | QVQLVESGGGLVQAGGSLRLSCAASGSTFYPNAMGWYRQAPGKERELVAAISRSGGSTYYADSVKGRFTISRDNAKNTVYLQMNSLKPEDTAVYYCAADGRSPARYDYWGQGTQVTVSS | low polyreactivity
14 | QVQLVESGGGLVQAGGSLRLSCAASGSTFYPNSMGWYRQAPGKERELVDAISWSGGYTYYADSVKGRFTISRDNAKNTVFLQMNSLNPEDTAVYYCAAREFLYSWYTHLKYDYWGQGTQVTVSS | low polyreactivity
15 | QVQLVESGGGLVQAGGSLRLSCAASGSTFYPYALGWYRQAHGKVRELVATISFSGGRTYYADSVKGRFTISRDNAKNTVYLQMHSLKPEDTAVYYCAAVSYWHDGHRGNYWGQGTQVTVSS | low polyreactivity
16 | QVQLVESGGGLVQAGGSLRLSCAASGSTFYPYAMGWYRPAPGKERELVAGITSSGGSTYYADSVKGRFTISRDNAKNTVYLQMISLKPEDTAVYYCNAYIDALPVSYQYDYWGQGTQVTVSS | low polyreactivity
17 | QVQLVESGGGLVQAGGSLRLSCAASGSTFYPYAMGWYRQAPGKERELVAAINWSGGTTYYADSVKGRFTISRDNAKNTVYLQLNSLKPEDTAVYYCAADGYPPGYGYWGQGTQVTVSS | low polyreactivity
18 | QVQLVESGGGLVQAGGSLRLSCAASGSTFYPYAMGWYRQAPGKERELVAAISSGGSTYYADSVKGRFTISRDNAKNTVYLQMNSLKPEDTAVYYCAADLYYAYYWGQGTQVTVSS | low polyreactivity
19 | QVQLVESGGGLVQAGGSLRLSCAASGSTFYPYAMGWYRQATGKERELVAGISWSGGSTYYADSVKGRFTFSRDNAKNTVYLQMNSLNPEDTAVYYCAVDVYWSVIYDYWGQGTQVTVSS | low polyreactivity
20 | QVQLVESGGGLVQAGGSLRLSCAASGSTFYPYFMGWYREAPGKERELVAAITYRGSTYYADSVKGRFTISRDNAKYTVYLQMNSLKPEDTAVYYCAAAVYAIDYTYYYWGQGTQVTVSS | high polyreactivity
21 | QVQLVESGGGLVQAGGSLRLSCAASGSTFYPYGMGWYRPAPGKERELVAAITDSGGSTYYADSVKGRFTISRDNAKNTVYLQMNSLKPEDTAVYYCAKTYWYPWRASLWHEYDYWGQGTQVTVSS | low polyreactivity
22 | QVQLVESGGGLVQAGGSLRLSCAASGSTFYQYAAMGWYRQAPGKERELVAAISGRGTRTYYADSVKGRFTISRDNAKNTVYLQMNSLKPEDTAVYYCAAEVNIRQYGFDYWGQGTQVTVSS | high polyreactivity

Row | Sequence | polyreactivity (PSR sort gate)
23 | QVQLVESGGGLVQAGGSLRLSCAASGSTFYQYAMGWYRQAPGKERELVAAISRISGSTSYADSVKGRFTISRDNAKNTVYLQLYSLKPEDTAVYYCAKGTAPIPYRGRVGTSKSDYWGQGTQVTVSS | low polyreactivity
24 | QVQLVESGGGLVQAGGSLRLSCAASGSTFYQYAMGWYRQAPGKERELVAAISWDSGSTYYADSVKGRFTISRDNAKNTVYLQMNSLKPEDTAVYYCAASWYGYYDCYAVEYDYLGQGTQVTVSS | low polyreactivity
25 | QVQLVESGGGLVQAGGSLRLSCAASGSTFYQYAMGWYRQSPGKERELVAAISGISGSTSYADSVKGRFTISRDNAKNTVYLQMNSLKPEDTAVYYCAKGTAPIPYRGRVGTSKSDYWGQGTQVTVSS | low polyreactivity
26 | QVQLVESGGGLVQAGGSLRLSCAASGSTFYQYVMGWYRQAPGKERELVAAISGSGGSTYYADSVKGRFTISRDNAKNTVYLQMNSLKPEDTAVYYCAADNYFDWYWLFFEYDYWGQGTQVTVSS | high polyreactivity
27 | QVQLVESGGGLVQAGGSLRLSCAASGSTFYRNAMGWYIQAPGKVRELVAAISQSGGRTYYADSVKGRFTISRDNAKNTVYLQMNSLKPEDTAVYYCATAFRKDRGFYPSRDYWGQGTQVTVSS | high polyreactivity
28 | QVQLVESGGGLVQAGGSLRLSCAASGSTFYRNVMGWYRQAPGKERELVAAISSGGSTYYADSVIGRFTISRDNAKNTVYLQLNSLKPEDTAVYYCARRLTREYDYWGQGTQVTVSS | low polyreactivity
29 | QVQLVESGGGLVQAGGSLRLSCAASGSTFYRYAIRWYRQAPGKERELVAAISKRGGSTYYADSVKGRFTISRDNAKNTVYLQMNSLKPEDTAVYYCAADPFHYGGGDDYWGQGTQVTVSS | high polyreactivity
30 | QVQLVESGGGLVQAGGSLRLSCAASGSTFYRYAKVSYRQAPGKARELVAAITRTGGSTYADSVKGRFTISRDNAKYTDYLQMKSLKPEDTAVYYCAVQRYYVSSISPFYYWGQGTQVTVSS | low polyreactivity
31 | QVQLVESGGGLVQAGGSLRLSCAASGSTFYRYAMGWYRQAPGKEREFVAAISRSGGSTYYADSVKGRFTISRDNAKNTVYLQMNSLNPEDTAVYYCNALNYRYRKYDYWGQGTQVTVSS | high polyreactivity
32 | QVQLVESGGGLVQAGGSLRLSCAASGSTFYRYAMGWYRQAPGKEREFVAAISTRGGSTHYADSVKGRFTISRDTAKNTVYLHMNSLKPEDTAVYYCNARGYYSVPSNTGIRYYRFDYWGQGTQVTVSS | high polyreactivity
33 | QVQLVESGGGLVQAGGSLRLSCAASGSTFYRYAMGWYRQAPGKERELVAAIDSSGGSTYYPDSVKGRFTISRDNAKNTVYLQMNSLKPEDTAVYYCATDLPPGGYDSWGQVTQVTVSS | low polyreactivity
34 | QVQLVESGGGLVQAGGSLRLSCAASGSTFYRYAMGWYRQAPGKERELVAAISKRGGSTYYADSVKGRFTISRDNAKNTVYLQMNSLKPEDTAVYYCAADPFHYGGGDDYWGQGTQVTVSS | high polyreactivity
35 | QVQLVESGGGLVQAGGSLRLSCAASGSTFYRYAMGWYRQAPGKERELVAAISSGGRTYYADSVKGRFTISRDNAKNTVYLQMNSLKPEDTAVYYCAADDSEGFDYWGQGTQVTVSS | high polyreactivity
36 | QVQLVESGGGLVQAGGSLRLSCAASGSTFYRYAMGWYRQAPGKERELVAAITRSDGITYYADSVKGRFTISRDNAKNTVYLQMNSLKPEDTAVYYCAKGYVGSFYDDFYYWGQGTQVTVSS | low polyreactivity
37 | QVQLVESGGGLVQAGGSLRLSCAASGSTFYRYAMGWYRQAPGKERELVARIRLSGTSTYYADSVKGRFTISRDNAKNTVYLQMNSLKPEDTAVYYCAAELYSRNWRSQYDYWGQGTQVTVSS | high polyreactivity
38 | QVQLVESGGGLVQAGGSLRLSCAASGSTFYRYAMGWYRQAPGKERELVATITNSGGSTYYADSVKGRFTISRDNAKNTVYLQMNSLKPEDTAVYYCARVRSRNTGYYYWGQGTQVTVSS | high polyreactivity
39 | QVQLVESGGGLVQAGGSLRLSCAASGSTFYRYTMGWYRQAPGKERELVAAISRGGDSTYYADSVKGRFTISRDNAKNTVYLQMNSLKPEDTAVYYCAANVGARKFGYEYNYWGQGTQVTVSS | high polyreactivity
40 | QVQLVESGGGLVQAGGSLRLSCAASGSTFYRYTMGWYRQAPGKERELVAAISRSGGRTYYADSVKGRFTISRDNAKNTVYLQMNSLIPEDTAVYYCNAEIASSAVQAQEGDYWGQGTQVTVSS | high polyreactivity
41 | QVQLVESGGGLVQAGGSLRLSCAASGSTFYSNAMGWYRQAPGKERELVAAINRGSSTYYADSVKGRFTISRDNAKNTVYLQMNSLKPDDTAVYYCAVDYFWYEMDYWGQGTQVTVSS | low polyreactivity
42 | QVQLVESGGGLVQAGGSLRLSCAASGSTFYSNAMGWYRQAPGKERELVDSISWSSGSTYYADSVKGRFTISRDNAKNTVYLQMNSLKPEDTAVYYCATDAGGPYRFGYWGQGTQVTVSS | low polyreactivity
43 | QVQLVESGGGLVQAGGSLRLSCAASGSTFYSNTMGWYRQAPGKERELVAAITRSGGSTYYADSVKGRFTISRDNAKNTVYLQMNSLKPEETAVYYCNTGYKTRALYWPYDYWGQGTLVTVSS | high polyreactivity

— the nanobody polyreactivity screen of Harvey et al. (2022)
